Blank lines part the entries; values can stand above or below the molecule they belong to.
Key:
[1] = biological target: construct corresponding to a predicted coiled-coil from the HDS4 domain of Sec7; assay: SEC-MALS; 5 mg/ml, Wyatt WTC-050S5 gel filtration column with DAWN HELEOS-II and Optilab T-rEX detectors, room temperature; measured mass compared with that predicted from the sequence
[2] = biological target: full-length T. terrestris Sec7 (T. terrestris); assay: as above
[3] = biological target: the molecule itself; assay: as above
GST-Arf1 = biological target: T1, GST-Arf1 (Saccharomyces cerevisiae (strain ATCC …, UniProt P11076)); assay: GST pulldown (also liposome pelleting); Arf1 loaded with GMPPNP or GDP; no stable nucleotide-dependent interaction seen (Arf1 is nevertheless a GEF substrate of Sec7ΔC)
T1 chain: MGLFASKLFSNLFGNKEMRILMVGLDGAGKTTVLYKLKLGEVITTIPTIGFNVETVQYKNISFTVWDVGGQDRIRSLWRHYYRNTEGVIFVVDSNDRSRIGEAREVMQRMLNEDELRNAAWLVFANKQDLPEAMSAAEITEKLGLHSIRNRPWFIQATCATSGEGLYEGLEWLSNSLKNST

B1: S. cerevisiae Gea2 full-length (natural protein, UniProt P39993 1-1459, looked up)
chain: MSDREFVTVDPVTIIIKECINLSTAMRKYSKFTSQSGVAALLGGGSEIFSNQDDYLAHTFNNLNTNKHNDPFLSGFIQLRLMLNKLKNLDNIDSLTILQPFLLIVSTSSISGYITSLALDSLQKFFTLNIINESSQNYIGAHRATVNALTHCRFEGSQQLSDDSVLLKVVFLLRSIVDSPYGDLLSNSIIYDVLQTILSLACNNRRSEVLRNAAQSTMIAVTVKIFSKLKTIEPVNVNQIYINDESYTNDVLKADTIGTNVESKEEGSQEDPIGMKVNNEEAISEDDGIEEEHIHSEKSTNGAEQLDIVQKTTRSNSRIQAYADDNYGLPVVRQYLNLLLSLIAPENELKHSYSTRIFGLELIQTALEISGDRLQLYPRLFTLISDPIFKSILFIIQNTTKLSLLQATLQLFTTLVVILGNNLQLQIELTLTRIFSILLDDGTANNSSSENKNKPSIIKELLIEQISILWTRSPSFFTSTFINFDCNLDRADVSINFLKALTKLALPESALTTTESVPPICLEGLVSLVDDMFDHMKDIDREEFGRQKNEMEILKKRDRKTEFIECTNAFNEKPKKGIPMLIEKGFIASDSDKDIAEFLFNNNNRMNKKTIGLLLCHPDKVSLLNEYIRLFDFSGLRVDEAIRILLTKFRLPGESQQIERIIEAFSSAYCENQDYDPSKISDNAEDDISTVQPDADSVFILSYSIIMLNTDLHNPQVKEHMSFEDYSGNLKGCCNHKDFPFWYLDRIYCSIRDKEIVMPEEHHGNEKWFEDAWNNLISSTTVITEIKKDTQSVMDKLTPLELLNFDRAIFKQVGPSIVSTLFNIYVVASDDHISTRMITSLDKCSYISAFFDFKDLFNDILNSIAKGTTLINSSHDDELSTLAFEYGPMPLVQIKFEDTNTEIPVSTDAVRFGRSFKGQLNTVVFFRIIRRNKDPKIFSKELWLNIVNIILTLYEDLILSPDIFPDLQKRLKLSNLPKPSPEISINKSKESKGLLSTFASYLKGDEEPTEEEIKSSKKAMECIKSSNIAASVFGNESNITADLIKTLLDSAKTEKNADNSRYFEAELLFIIELTIALFLFCKEEKELGKFILQKVFQLSHTKGLTKRTVRRMLTYKILLISLCADQTEYLSKLINDELLKKGDIFTQKFFATNQGKEFLKRLFSLTESEFYRGFLLGNENFWKFLRKVTAMKEQSESIFEYLNESIKTDSNILTNENFMWVLGLLDEISSMGAVGNHWEIEYKKLTESGHKIDKENPYKKSIELSLKSIQLTSHLLEDNNDLRKNEIFAIIQALAHQCINPCKQISEFAVVTLEQTLINKIEIPTNEMESVEELIEGGLLPLLNSSETQEDQKILISSILTIISNVYLHYLKLGKTSNETFLKILSIFNKFVEDSDIEKKLQQLILDKKSIEKGNGSSSHGSAHEQTPESNDVEIEATAPIDDNTDDDNKPKLSDVEKD
notes: Gea2, early-Golgi Arf-GEF of S. cerevisiae, full length
stoichiometry N [3]: 2

B3: S. cerevisiae Sec7 DCB/HUS domain construct (domain or fragment)
chain: PRSTHTRNISLSSNGSNTNSTIILVKTTLETILNDKDIKKNSNAQKAIERTLQKFKEFDPQTTNNPHYVDSILVFEALRASCRTKSSKVQSLALDCLSKLFSFRSLDETLLVNPPDSLASNDQRQDAADGITPPPKQKIIDAAIDTISDCFQGEGTDDRVELQIVRALSSCILEEDSSSLCHGASLLKAIRTIYNVFVFSLNPSNQGIAQATLTQIISSVYDKIDLKQSTSSAVSLSTKNHQQQSAIELSEASENAETPAPLTLENMDKLNDDEERLMDAQQPDSIAITNQDLAVKDAFLVFRVMAKICAKPLETELDMRSHAVRSKLLSLHIIYSIIKDHIDVFLSHNIFLPGKERVCFIDSIRQYLRLVLSRNAASPLAPVFEVTLEIMWLLIANLRADFVKEIPVFLTEIYFPISELTTSTSQQKRYFLSVIQRICNDPRTLVEFYLNYDCNPGMPNVMEITVDYLTRLALTRVEITQTQRSYYDEQISKSLSTYNFSQLPLLTSSNLSSSPDVGQVNLLFPLDFALKMVSLNCIVSVLRSLSSWAHKALNPNTHTANKVLLNTTSSARQESRSSLSNDVRSSIMTSNDDFKPTYEDEESRSLSSQNIDADDPTQFEN
stoichiometry N [3]: 2

B4: S. cerevisiae Sec7f (residues 203-2009) (domain or fragment, UniProt P11075 203-2009, looked up)
chain: PRSTHTRNISLSSNGSNTNSTIILVKTTLETILNDKDIKKNSNAQKAIERTLQKFKEFDPQTTNNPHYVDSILVFEALRASCRTKSSKVQSLALDCLSKLFSFRSLDETLLVNPPDSLASNDQRQDAADGITPPPKQKIIDAAIDTISDCFQGEGTDDRVELQIVRALSSCILEEDSSSLCHGASLLKAIRTIYNVFVFSLNPSNQGIAQATLTQIISSVYDKIDLKQSTSSAVSLSTKNHQQQSAIELSEASENAETPAPLTLENMDKLNDDEERLMDAQQPDSIAITNQDLAVKDAFLVFRVMAKICAKPLETELDMRSHAVRSKLLSLHIIYSIIKDHIDVFLSHNIFLPGKERVCFIDSIRQYLRLVLSRNAASPLAPVFEVTLEIMWLLIANLRADFVKEIPVFLTEIYFPISELTTSTSQQKRYFLSVIQRICNDPRTLVEFYLNYDCNPGMPNVMEITVDYLTRLALTRVEITQTQRSYYDEQISKSLSTYNFSQLPLLTSSNLSSSPDVGQVNLLFPLDFALKMVSLNCIVSVLRSLSSWAHKALNPNTHTANKVLLNTTSSARQESRSSLSNDVRSSIMTSNDDFKPTYEDEESRSLSSQNIDADDPTQFENLKLRKTALSECIAIFNNKPKKAIPVLIKKGFLKDDSPISIAKWLLETEGLDMAAVGDYLGEGDDKNIAIMHAFVDEFDFTGMSIVDALRSFLQSFRLPGEGQKIDRFMLKFAERFVDQNPGVFSKADTAYVLSYSLIMLNTDLHSSQIKNKMSLQEFLENNEGIDNGRDLPRDFLEGLFNEIANNEIKLISEQHQAMLSGDTNLVQQQQSAFNFFNSRDLTREAYNQVSKEISSKTELVFKNLNKNKGGPDVYYAASHVEHVKSIFETLWMSFLAALTPPFKDYDDIDTTNKCLEGLKISIKIASTFRINDARTSFVGALVQFCNLQNLEEIKVKNVNAMVILLEVALSEGNYLEGSWKDILLVVSQMERLQLISKGIDRDTVPDVAQARVANPRVSYESSRSNNTSFFDVWGKKATPTELAQEKHHNQTLSPEISKFISSSELVVLMDNIFTKSSELSGNAIVDFIKALTAVSLEEIESSENASTPRMFSLQKMVDVCYYNMDRIKLEWTPLWAVMGKAFNKIATNSNLAVVFFAIDSLRQLSMRFLDIEELSGFEFQHDFLKPFEYTVQNSGNTEVQEMIIECFRNFILTKSESIKSGWKPILESLQYTARSSTESIVLKTQLLVSNDIVTNHFENVFSQEDAFSELVGVFREITKNKRFQKLSLHALESLRKMTQNVADICFYNENKTEEERKHNDALLRGKDIFQDVWFPMLFCFNDTIMTAEDLEVRSRALNYMFDALVAYGGKFNDDFWEKICKKLLFPIFGVLSKHWEVNQFNSHDDLSVWLSTTLIQALRNLIALFTHYFESLNRMLDGFLGLLVSCICQENDTIARIGRSCLQQLILQNVSKFNEYHWNQIGDVFDKLFDLTTANELFDYDPLQQGRKSSVSHHQTTNDTSQHSDDDSNDRRENDSNISETVERAHQEESSEDVGGDMVETLNGQTKLNNGNSVPTVKDELNPKPASLSIPKKTKHMKRNESNEDIRRRINIKNSIVVKCVLQLLMIELLNELFENEDFAHCIPYKEAIRITRLLEKSYEFSRDFNEDYGLRTRLVEARVVDKIPNLLKQETSAAAVLLDIMFQLYLNDDEKKADLITRLITICIQVVEGYVSLDDRTMERSINAWRSVIVEILQGYYEFDDEDFRLYCPAMYALVIQILDKSVPTELRHAIKQFLSRVGELYLSTD
notes: Sec7 (Arf-GEF) of S. cerevisiae, residues 203-2009; source: E. coli, purified (Ni-NTA, MonoQ, Superdex 200)
stoichiometry N [3]: 2

The next lines start with results.

stoichiometry N [1]: 2
Molecule: construct corresponding to a predicted coiled-coil from the HDS4 domain of Sec7 (domain or fragment)

stoichiometry N [2]: 2
Molecule: full-length T. terrestris Sec7 (natural protein)

binding result (GST-Arf1): no binding
B2: S. cerevisiae Sec7ΔC (residues 203-1017) (domain or fragment, UniProt P11075 203-1017, looked up)
chain: PRSTHTRNISLSSNGSNTNSTIILVKTTLETILNDKDIKKNSNAQKAIERTLQKFKEFDPQTTNNPHYVDSILVFEALRASCRTKSSKVQSLALDCLSKLFSFRSLDETLLVNPPDSLASNDQRQDAADGITPPPKQKIIDAAIDTISDCFQGEGTDDRVELQIVRALSSCILEEDSSSLCHGASLLKAIRTIYNVFVFSLNPSNQGIAQATLTQIISSVYDKIDLKQSTSSAVSLSTKNHQQQSAIELSEASENAETPAPLTLENMDKLNDDEERLMDAQQPDSIAITNQDLAVKDAFLVFRVMAKICAKPLETELDMRSHAVRSKLLSLHIIYSIIKDHIDVFLSHNIFLPGKERVCFIDSIRQYLRLVLSRNAASPLAPVFEVTLEIMWLLIANLRADFVKEIPVFLTEIYFPISELTTSTSQQKRYFLSVIQRICNDPRTLVEFYLNYDCNPGMPNVMEITVDYLTRLALTRVEITQTQRSYYDEQISKSLSTYNFSQLPLLTSSNLSSSPDVGQVNLLFPLDFALKMVSLNCIVSVLRSLSSWAHKALNPNTHTANKVLLNTTSSARQESRSSLSNDVRSSIMTSNDDFKPTYEDEESRSLSSQNIDADDPTQFENLKLRKTALSECIAIFNNKPKKAIPVLIKKGFLKDDSPISIAKWLLETEGLDMAAVGDYLGEGDDKNIAIMHAFVDEFDFTGMSIVDALRSFLQSFRLPGEGQKIDRFMLKFAERFVDQNPGVFSKADTAYVLSYSLIMLNTDLHSSQIKNKMSLQEFLENNEGIDNGRDLPRDFLEGLFNEIANNEIKLISEQH
notes: Sec7 of S. cerevisiae, residues 203-1017 (DCB/HUS and GEF domains); also called Sec7(203-1017); construct lacking the HDS1-4 domains with the GEF domain; source: E. coli, purified (Ni-NTA, MonoQ, Superdex 200)
stoichiometry N [3]: 2
